Laboratory results reported in patent US20040038876A1 (published 2004).

T1: Shh receptor molecules on C3H10T1/2 cells (UniProt Q61115 1-1434)
T1 sequence (looked up): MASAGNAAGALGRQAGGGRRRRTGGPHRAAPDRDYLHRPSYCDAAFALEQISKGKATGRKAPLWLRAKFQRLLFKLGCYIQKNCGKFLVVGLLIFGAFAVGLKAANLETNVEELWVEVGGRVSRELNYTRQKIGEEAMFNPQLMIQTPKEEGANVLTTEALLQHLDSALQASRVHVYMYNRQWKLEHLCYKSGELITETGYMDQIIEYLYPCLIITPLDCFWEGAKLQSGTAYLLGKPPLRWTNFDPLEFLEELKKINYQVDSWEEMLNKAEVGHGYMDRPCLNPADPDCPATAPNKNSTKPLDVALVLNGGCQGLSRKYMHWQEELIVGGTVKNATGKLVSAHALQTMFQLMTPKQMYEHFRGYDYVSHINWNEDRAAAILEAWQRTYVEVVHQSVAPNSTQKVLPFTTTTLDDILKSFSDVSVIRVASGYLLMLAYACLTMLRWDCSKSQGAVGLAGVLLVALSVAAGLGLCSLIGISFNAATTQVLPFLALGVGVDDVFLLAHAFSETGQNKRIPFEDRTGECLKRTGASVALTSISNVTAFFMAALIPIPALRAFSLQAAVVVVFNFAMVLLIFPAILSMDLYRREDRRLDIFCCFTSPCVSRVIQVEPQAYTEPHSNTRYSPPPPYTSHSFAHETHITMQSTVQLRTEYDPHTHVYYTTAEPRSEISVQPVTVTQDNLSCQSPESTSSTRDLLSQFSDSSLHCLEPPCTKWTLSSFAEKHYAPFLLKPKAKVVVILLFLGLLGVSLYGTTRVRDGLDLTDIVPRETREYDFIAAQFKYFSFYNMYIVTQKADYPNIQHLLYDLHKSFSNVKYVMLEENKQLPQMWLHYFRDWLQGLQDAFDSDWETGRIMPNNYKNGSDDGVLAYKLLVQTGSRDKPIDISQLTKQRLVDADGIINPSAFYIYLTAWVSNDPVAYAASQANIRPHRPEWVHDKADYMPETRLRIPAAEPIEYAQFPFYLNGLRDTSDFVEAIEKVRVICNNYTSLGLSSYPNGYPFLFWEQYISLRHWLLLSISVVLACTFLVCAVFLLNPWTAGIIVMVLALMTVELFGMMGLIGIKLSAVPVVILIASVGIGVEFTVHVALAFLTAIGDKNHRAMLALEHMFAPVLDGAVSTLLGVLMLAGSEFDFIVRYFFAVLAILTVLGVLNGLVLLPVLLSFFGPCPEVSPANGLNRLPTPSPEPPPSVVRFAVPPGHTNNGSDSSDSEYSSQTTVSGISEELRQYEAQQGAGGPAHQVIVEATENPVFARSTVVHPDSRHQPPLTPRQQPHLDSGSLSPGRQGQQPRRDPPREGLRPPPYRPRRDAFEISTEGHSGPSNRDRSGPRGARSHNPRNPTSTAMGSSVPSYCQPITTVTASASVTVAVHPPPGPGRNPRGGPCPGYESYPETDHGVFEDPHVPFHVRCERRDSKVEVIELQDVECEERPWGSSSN


Target: T1, Shh receptor molecules on C3H10T1/2 …
Test: cell-based or functional assay

| IC50 in C3H10T1/2 assay [µg/mL] | Binder |
| --- | --- |
| 0.3 | mutant 45 (Shh C1II/A169C + G146C), unmodified (ligand) not shown |
| 1 | mutant 44 (Shh C1II/A169C + E113C), unmodified (ligand) not shown |
| 0.5 | mutant 45 (Shh C1II/A169C + G146C), 5 K PEG (ligand, 5 K PEG maleimide on thiol of Cys146, Cys169) not shown |
| 0.6 | mutant 44 (Shh C1II/A169C + E113C), 5 K PEG (ligand, 5 K PEG maleimide on thiol of Cys113, Cys169) not shown |

Target: T1, Shh receptor molecules on C3H10T1/2 …
Test: cell-based or functional assay
Remark: another data set of the same source

| Potency (IC50) in C3H10T1/2 assay (alkaline phosphatase induction) [µg/mL] | Binder |
| --- | --- |
| 2 | mutant 25 (Shh C1II/A169C + S133C), 5 K PEG (ligand, 5 K PEG maleimide on thiol of Cys133, Cys169) not shown |
| 0.2 | mutant 25 (Shh C1II/A169C + S133C), HPE-modified (ligand, beta-(4-hydroxyphenyl) ethylmaleimide on thiol of Cys133, Cys169) not shown |
| 2 | mutant 25 (Shh C1II/A169C + S133C), 20 K PEG (ligand, 20 K PEG maleimide on thiol of Cys133, Cys169) not shown |
| 3 | mutant 25 (Shh C1II/A169C + S133C), Pyrene-modified (ligand, N-(1-pyrenyl) maleimide on thiol of Cys133, Cys169) not shown |
| 0.6 | mutant 25 (Shh C1II/A169C + S133C), Napth-modified (ligand, N-(1-naphthyl) maleimide on thiol of Cys133, Cys169) not shown |
